Source: patent US20220387578A1
Read-outs that look alike come from different tables or passages of the source.

Legend:
[1] = target: eHead-H3HK68_v1 (wild-type H3 head domain monomer) (influenza A virus) (UniProt Q91MA7); test: SPR
[2] = target: eHead_H1Solomon (wild-type H1 head domain monomer) (influenza A virus) (UniProt B4URD6); test: SPR
[3] = target: H1 HA A/Solomon Islands/03/2006 (H1N1), recombinant soluble trimer (influenza A virus); test: ELISA
[4] = target: H1 HA A/Texas/36/1991 (H1N1), recombinant soluble trimer (influenza A virus); test: ELISA
[5] = target: H13 HA A/gull/Maryland/704/1977, recombinant (influenza A virus); test: ELISA
[6] = target: H14 HA A/mallard duck/Astrakhan/263/1982, recombinant (influenza A virus); test: ELISA
[7] = target: H16 HA A/black-headed gull/Sweden/4/1999, recombinant (influenza A virus); test: ELISA
[8] = target: H2 HA A/Singapore/1/1957, recombinant soluble trimer (influenza A virus); test: ELISA
[9] = target: H3 HA A/Minnesota/11/10, recombinant soluble trimer (influenza A virus); test: ELISA
[10] = target: H3 HA A/Switzerland/9715293/2013, recombinant soluble trimer (influenza A virus); test: ELISA
[11] = target: H3 HA A/Texas/50/2012, recombinant soluble trimer (influenza A virus); test: ELISA
[12] = target: H5 HA A/Indonesia/05/2005 (H5N1), recombinant (influenza A virus); test: ELISA
[13] = target: H5 HA A/Vietnam/1203/2004 (H5N1), recombinant (influenza A virus); test: ELISA
[14] = target: H7 HA A/New York/107/2003, recombinant (influenza A virus); test: ELISA
[15] = target: H7 HA A/Shanghai/2/2013 (H7N9), recombinant uncleaved trimer (influenza A virus); test: ELISA
[16] = target: H9 HA A/Hong Kong/1073/99, recombinant (influenza A virus); test: ELISA
[17] = target: H7 HA A/New York/107/2003, recombinant (influenza A virus)
[18] = target: purified HA protein of H1N1 A/California/07/2009 (Sino Biological 11085-V08B) (influenza A virus); test: cell-based or functional assay
[19] = target: A/California/07/2004 (Influenza A virus); test: ELISA on coated recombinant HA
[20] = target: A/Chicken/Germany/N/1949 (Influenza A virus); test: ELISA on coated recombinant HA
[21] = target: A/Duck/Czechoslovakia/1956 (Influenza A virus); test: ELISA on coated recombinant HA
[22] = target: A/Fort Monmouth/1/1947 (Influenza A virus); test: ELISA on coated recombinant HA
[23] = target: A/Taiwan/2/2013 (Influenza A virus); test: ELISA on coated recombinant HA
[24] = target: A/Turkey/Wisconsin/1/1966 (Influenza A virus); test: ELISA on coated recombinant HA
[25] = target: H1 HA A/Solomon Islands/03/2006 (H1N1), recombinant soluble trimer (influenza A virus); test: ELISA on coated recombinant HA
[26] = target: H1 HA A/Texas/36/1991 (H1N1), recombinant soluble trimer (influenza A virus); test: ELISA on coated recombinant HA
[27] = target: H12 HA A/duck/Alberta/60/1976, recombinant (influenza A virus); test: ELISA on coated recombinant HA
[28] = target: H14 HA A/mallard duck/Astrakhan/263/1982, recombinant (influenza A virus); test: ELISA on coated recombinant HA
[29] = target: H15 HA A/shearwater/Western Australia/2576/1979, recombinant (influenza A virus); test: ELISA on coated recombinant HA
[30] = target: H2 HA A/Singapore/1/1957, recombinant soluble trimer (influenza A virus); test: ELISA on coated recombinant HA
[31] = target: H3 HA A/Texas/50/2012, recombinant soluble trimer (influenza A virus); test: ELISA on coated recombinant HA
[32] = target: H5 HA A/Indonesia/05/2005 (H5N1), recombinant (influenza A virus); test: ELISA on coated recombinant HA
[33] = target: H5 HA A/Vietnam/1203/2004 (H5N1), recombinant (influenza A virus); test: ELISA on coated recombinant HA
[34] = target: H7 HA A/Shanghai/2/2013 (H7N9), recombinant uncleaved trimer (influenza A virus); test: ELISA on coated recombinant HA
[35] = target: A/Hong Kong/125/2017 (Influenza A virus); test: ELISA on coated recombinant HA
[36] = target: A/Puerto Rico/8/1934 (Influenza A virus); test: ELISA on coated recombinant HA
[37] = target: A/Taiwan/2/2013 (Influenza A virus); test: ELISA on coated recombinant HA; remark: listed apart in the source
[38] = target: A/Tennessee/3/2019 (Influenza A virus); test: ELISA on coated recombinant HA
[39] = target: A/Turkey/Ontario/6118/1967 (Influenza A virus); test: ELISA on coated recombinant HA
[40] = target: A/Yokohama/110/2019 (Influenza A virus); test: ELISA on coated recombinant HA
[41] = target: H2 HA A/Singapore/1/1957, recombinant soluble trimer (influenza A virus); test: ELISA on coated recombinant HA; remark: listed apart in the source
[42] = target: H3 HA A/Texas/50/2012, recombinant soluble trimer (influenza A virus); test: ELISA on coated recombinant HA; remark: listed apart in the source
[43] = target: H5 HA A/Indonesia/05/2005 (H5N1), recombinant (influenza A virus); test: ELISA on coated recombinant HA; remark: listed apart in the source
[44] = target: H5 HA A/Vietnam/1203/2004 (H5N1), recombinant (influenza A virus); test: ELISA on coated recombinant HA; remark: listed apart in the source
[45] = target: H1 HA A/Texas/36/1991 (H1N1), recombinant soluble trimer (influenza A virus); test: ELISA on coated recombinant HA; row printed A/Texas/38/1991
[46] = target: A/Duck/Czechoslovakia/1956 (Influenza A virus); test: ELISA on coated recombinant HA; row printed A/Duck/Czechoslovakia/1958
[47] = target: H12 HA A/duck/Alberta/60/1976, recombinant (influenza A virus); test: ELISA on coated recombinant HA; remark: listed apart in the source
[48] = target: H3 HA A/Hong Kong/1/1968 (H3N2), recombinant soluble trimer (influenza A virus) (UniProt Q91MA7); test: ELISA on coated recombinant HA
[49] = target: H1 HA A/Solomon Islands/03/2006 (H1N1), recombinant soluble trimer (influenza A virus); test: BLI, biotinylated HA on streptavidin sensor
[50] = target: H3 HA A/Victoria/3/1975 (H3N2) (influenza A virus); test: BLI, biotinylated HA on streptavidin sensor
[51] = target: H3 HA A/Victoria/361/2011 (H3N2) (influenza A virus); test: BLI, biotinylated HA on streptavidin sensor
[52] = target: H5 HA A/Indonesia/05/2005 (H5N1), recombinant (influenza A virus); test: BLI, biotinylated HA on streptavidin sensor
[53] = target: H5 HA A/Vietnam/1203/2004 (H5N1), recombinant (influenza A virus); test: BLI, biotinylated HA on streptavidin sensor
[54] = target: H12 HA A/duck/Alberta/60/1976, recombinant (influenza A virus); test: ELISA
[55] = target: H15 HA A/shearwater/Western Australia/2576/1979, recombinant (influenza A virus); test: ELISA

For C05 (antibody), which Kd [1] is on record?
Its Kd is 170 nM.

And the Kd [2]?
Its Kd is 86 nM.

How did the Kd [2] turn out when CH65 (antibody) was run?
Its Kd is 340 nM.

Which results are given for “FluA-20 (hybridoma-produced IgG) (antibody)”?
EC50 [3]: 0.005 µg/mL; EC50 [4]: 0.004 µg/mL; EC50 [5]: 0.07 µg/mL; EC50 [6]: 0.013 µg/mL; EC50 [7]: > 10 µg/mL; EC50 [8]: 0.007 µg/mL; EC50 [9]: > 10 µg/mL; EC50 [10]: 0.019 µg/mL; EC50 [11]: 0.004 µg/mL; EC50 [12]: 0.085 µg/mL; EC50 [13]: 0.283 µg/mL; EC50 [14]: 0.808 µg/mL; EC50 [15]: 0.066 µg/mL; EC50 [16]: 0.009 µg/mL; EC50 [17]: > 2.5 µg/mL; NK cell activation (% of NK cells with IFN-γ and/or CD107a) at 0.1 µg/mL FluA-20 [18]: 1.3%; NK cell activation (% of NK cells with IFN-γ and/or CD107a) at 1 µg/mL FluA-20 [18]: 9.2%; NK cell activation (% of NK cells with IFN-γ and/or CD107a) at 10 µg/mL FluA-20 [18]: 14.6%; EC50 [19]: 0.008 µg/mL; EC50 [20]: 0.037 µg/mL; EC50 [21]: 0.007 µg/mL; EC50 [22]: 0.007 µg/mL; EC50 [23]: 0.061 µg/mL; EC50 [24]: 0.022 µg/mL; EC50 [25]: 0.008 µg/mL; EC50 [26]: 0.009 µg/mL; EC50 [27]: 0.006 µg/mL; EC50 [28]: 0.007 µg/mL; EC50 [29]: 0.007 µg/mL; EC50 [30]: 0.009 µg/mL; EC50 [31]: 0.006 µg/mL; EC50 [32]: 0.016 µg/mL; EC50 [33]: 0.142 µg/mL; EC50 [34]: 0.012 µg/mL; EC50 [35]: 0.009 µg/mL; EC50 [36]: 0.005 µg/mL; EC50 [37]: 0.073 µg/mL; EC50 [38]: 0.007 µg/mL; EC50 [39]: 0.004 µg/mL; EC50 [40]: 0.009 µg/mL; EC50 [41]: 0.007 µg/mL; EC50 [42]: 0.008 µg/mL; EC50 [43]: 0.015 µg/mL; EC50 [44]: 0.036 µg/mL; EC50 [45]: 0.021 µg/mL; EC50 [46]: 0.006 µg/mL

Which EC50 [17] does the source give for MEDI-8852 (antibody) here?
Its EC50 is 0.117 µg/mL.

What about the EC50 [35] of the same substance?
Its EC50 is 0.069 µg/mL.

And the EC50 [36]?
Its EC50 is 0.013 µg/mL.

What about the EC50 [37] of the same substance?
Its EC50 is 0.157 µg/mL.

What about the EC50 [38] of the same substance?
Its EC50 is 0.014 µg/mL.

What about the EC50 [39] of the same substance?
The EC50 was 0.081 µg/mL.

And the EC50 [40]?
Its EC50 is 0.043 µg/mL.

And the EC50 [47]?
The EC50 was 0.361 µg/mL.

What about the EC50 [41] of the same substance?
Its EC50 is 0.023 µg/mL.

What about the EC50 [48] of the same substance?
The EC50 was 0.014 µg/mL.

What about the EC50 [42] of the same substance?
The EC50 was 0.024 µg/mL.

What about the EC50 [43] of the same substance?
The EC50 was 0.134 µg/mL.

And the EC50 [44]?
The EC50 was 0.009 µg/mL.

What about the EC50 [45] of the same substance?
The EC50 was 0.063 µg/mL.

And the EC50 [46]?
Its EC50 is 0.018 µg/mL.

Which Kd [49] does the source give for rFluA-20 Fab here?
Its Kd is 2 nM.

And the Kd [50]?
Its Kd is 3460 nM.

What about the Kd [51] of the same substance?
The Kd was 15 nM.

And the Kd [52]?
Its Kd is 88 nM.

And the Kd [53]?
Its Kd is 122 nM.

Which EC50 [3] does the source give for “rFluA-20 IgG (recombinant FluA-20) (antibody)” here?
The EC50 was 0.008 µg/mL.

And the EC50 [4]?
The EC50 was 0.008 µg/mL.

And the EC50 [54]?
Its EC50 is 0.006 µg/mL.

What about the EC50 [6] of the same substance?
Its EC50 is 0.007 µg/mL.

And the EC50 [55]?
Its EC50 is 0.007 µg/mL.

What about the EC50 [8] of the same substance?
Its EC50 is 0.011 µg/mL.

What about the EC50 [11] of the same substance?
Its EC50 is 0.007 µg/mL.

What about the EC50 [12] of the same substance?
The EC50 was 0.016 µg/mL.

What about the EC50 [15] of the same substance?
Its EC50 is 0.013 µg/mL.

What about the EC50 [16] of the same substance?
The EC50 was 0.007 µg/mL.

What about the EC50 [19] of the same substance?
The EC50 was 0.009 µg/mL.

And the EC50 [20]?
Its EC50 is 0.041 µg/mL.

And the EC50 [21]?
The EC50 was 0.007 µg/mL.

What about the EC50 [22] of the same substance?
Its EC50 is 0.007 µg/mL.

What about the EC50 [23] of the same substance?
The EC50 was 0.063 µg/mL.

And the EC50 [24]?
The EC50 was 0.016 µg/mL.

And the EC50 [25]?
Its EC50 is 0.008 µg/mL.

And the EC50 [26]?
Its EC50 is 0.008 µg/mL.

What about the EC50 [27] of the same substance?
Its EC50 is 0.006 µg/mL.

And the EC50 [28]?
The EC50 was 0.007 µg/mL.

And the EC50 [29]?
The EC50 was 0.007 µg/mL.

What about the EC50 [30] of the same substance?
The EC50 was 0.011 µg/mL.

What about the EC50 [31] of the same substance?
Its EC50 is 0.007 µg/mL.

What about the EC50 [32] of the same substance?
Its EC50 is 0.016 µg/mL.

What about the EC50 [33] of the same substance?
Its EC50 is 0.133 µg/mL.

What about the EC50 [34] of the same substance?
The EC50 was 0.013 µg/mL.
